Where a chain is given by its changes, count along the chain named. “And” between values parts separate entries of the source, which are not always exact repeats. Equal values may be shown once.
T1: Mouse Fc-human GDF15 (Mu IgG1Fc_Fxa_Hu GDF15) (human)
T1 construct: Whole entry is the fusion: mouse IgG1 Fc, FXa site and linker, mature human GDF15; described as dimeric; also called Murine dimeric IgG1 Fc-human GDF-15 with FXa cleavage site; control human GDF15
T1 chain: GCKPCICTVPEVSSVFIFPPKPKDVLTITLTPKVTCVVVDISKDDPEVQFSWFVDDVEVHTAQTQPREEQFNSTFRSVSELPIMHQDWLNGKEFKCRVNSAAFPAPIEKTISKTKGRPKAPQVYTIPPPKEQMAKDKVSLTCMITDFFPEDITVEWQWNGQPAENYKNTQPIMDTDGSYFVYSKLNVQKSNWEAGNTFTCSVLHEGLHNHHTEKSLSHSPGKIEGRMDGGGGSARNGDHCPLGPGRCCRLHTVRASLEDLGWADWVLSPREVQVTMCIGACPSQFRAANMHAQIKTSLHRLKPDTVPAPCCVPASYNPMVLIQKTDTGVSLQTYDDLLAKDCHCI

B1: GDF15_0470 (antibody, human IgG1, kappa, V domains shown)
VH: QVQLVQSGAEVKKPGASVKVSCKASGYPFEGWYIHWVRQAPGQGLEWMGWNNPRTGLTNHAQKFQGRVTMTRDTSISTAYMELSRLRSDDTAVYYCARGVGADAAFDIWGQGTMVTVSS
VL: EIVLTQSPATLSLSPGERATLSCRSSQSLLWKHGYNYLDWYQQKPGQAPRLLIYLDRNRAHGIPARFSGSGSGTDFTLTISSLEPEDFAVYYCMQSFETPITFGQGTKVEIKR
notes: Tested in bivalent format; also called GDF15-470
B2: GDF15_0297 (antibody, mouse IgG1, kappa, V domains shown)
VH: QVQLQQPGAELVKPGASVKMSCKASGYPFEGWYIHWVKQRPGQGLEWMGWNNPRTGLTNHAQKFQGKVTMTRDTSSSTAYMQLSSLTSEDSAVYYCARGVGADAAFDIWGQGTTLTVSS
VL: DIVMTQSPSSLSVSAGEKVTMSCRSSQSLLWKHGYNYLDWYQQKPGQPPKLLIYLDRNRAHGVPDRFTGSGSGTDFTLTISSVQAEDLAVYYCMQSFETPITFGGGTKLEIKR
notes: Tested in bivalent format; also called GDF15_297
B3: GDF15_0301 (antibody, mouse IgG1, kappa, V domains shown)
VH: B2 VH with V68A, M70L, R72V
VL: B2 VL with M4L
notes: Tested in bivalent format; also called GDF15_301; mAB2
B4: GDF15_014 (antibody, human IgG1, kappa, V domains shown)
VH: QVQLVQSGAEVKKPGSSVKVSCKASGYTFSSYNIDWVRQAPGQGLEWMGQINPINGLAFYNQKFQGRVTITADESTSTAYMELSSLRSEDTAVYYCAREAITTVGAMDYWGQGTLVTVSS
VL: EIVLTQSPATLSLSPGERATLSCRTSQNVHNYLAWYQQKPGQAPRLLIYDASNRATGIPARFSGSGSGTDFTLTISSLEPEDFAVYYCQQFWSDPYTFGQGTKVEIKR
notes: Tested in bivalent format
B5: GDF15_013 (antibody, human IgG1, kappa, V domains shown)
VH: B4 VH with S31D, I34M, Q50G, I54N
VL: B4 VL with Q27E, N28S, N31S, S93N, D94W, Y96W
notes: Tested in bivalent format
B6: GDF15_010 (antibody, human IgG1, kappa, V domains shown)
VH: B4 VH with S31D, Q50G, I54N, Y60F
VL: B4 VL with N28S, V29L, N31S, S93N, Y96W
notes: Tested in bivalent format
B7: GDF15_022 (antibody, human IgG1, kappa, V domains shown)
VH: B4 VH with S31D, I54N, A58I, Y60F, A100V
VL: B4 VL with N28S, N31S, S52K, N53T, T56D, W92S
notes: Tested in bivalent format
B8: GDF15_015 (antibody, human IgG1, kappa, V domains shown)
VH: B4 VH with S31D, I34M, I54N, M107T
VL: B4 VL with N31S, R54L, T56D, W92S, S93N, Y96W
notes: Tested in bivalent format
B9: GDF15_021 (antibody, human IgG1, kappa, V domains shown)
VH: B4 VH with Q50G, A58I, Y60F, Y109H
VL: B4 VL with Q27E, N31S, R54L, T56D
notes: Tested in bivalent format
B10: GDF15_017 (antibody, human IgG1, kappa, V domains shown)
VH: B4 VH with S30T, S31D, I54N, T91N
VL: B4 VL with N28S, N31S, S52K, N53T, W92S
notes: Tested in bivalent format
B11: GDF15_003 (antibody, human IgG1, kappa, V domains shown)
VH: B4 VH with S30T, I54N, A100Q
VL: B4 VL with T25A, N28S, V29L, H30S, N31S, S52K, T56D, W92S
notes: Tested in bivalent format
B12: GDF15_020 (antibody, human IgG1, kappa, V domains shown)
VH: B4 VH with S31D, I34M, I54N, F59N
VL: B4 VL with T25A, V29L, N31S, N53T, T56D
notes: Tested in bivalent format
B13: GDF15_004 (antibody, human IgG1, kappa, V domains shown)
VH: B4 VH with I54N, F59N, N61A, V104I
VL: B4 VL with Q27E, N28S, N31S, N53T, T56D
notes: Tested in bivalent format

Target: T1, Mouse Fc-human GDF15 (Mu IgG1Fc_Fxa_Hu …)
Test: SPR BIAcore T200, 37C; Fc-GDF15 captured, IgG as analyte
Method: (§1) Mouse Fc-human GDF15 (Mu IgG1Fc_Fxa_Hu GDF15; SEQ ID NO:2), Mouse Fc-mouse GDF15 (Mu IgG1Fc_Fxa_Mu GDF15; SEQ ID NO:5) and Mouse Fc-cynomolgus monkey GDF15 (Mu IgG1Fc_Fxa_Cyno GDF15; SEQ ID NO:4) were captured onto three different flow cells of a CM4 sensorchip (catalogue number BR100534, GE Healthcare) surface using the Mouse Antibody Capture Kit (BR100838, GE Healthcare) according to the manufacturer's protocol. The running and sample bufferwas 10 mM HEPES pH 7.4, 0.15M NaCl, 3 mM EDTA, 0.05% P-20 (HBS-EP+). The final capture levels of Mu IgG1Fc_Fxa_Hu GDF15, Mu IgG1Fc_Fxa_Mu GDF15 and Mu IgG1Fc_Fxa_Cyno GDF15 were 40 resonance units (RU), 32 RU and 25 RU respectively. Flow cell 1 was used as a reference flow cell. […] The dissociation was monitored for 2.8 hours and the surface was regenerated with 10 mM Glycine pH 1.7. Binding affinities and rate constants were determined for murine and cynomolgus monkey GDF15 by fitting the resulting sensorgram data to a 1:1 Langmuir model in BIAcore T200 Evaluation software version 2.0 (GE Healthcare).
(§2) Additionally, the binding of clone GDF15_001 to cynomolgus monkey and mouse GDF15 was measured using above mentioned BIAcore assay (Table 7).

| Kd | T½ min | koff | kon | Binder |
| --- | --- | --- | --- | --- |
| < 0.01 nM | 3.7 h and 4.47 h | 5.21e-05 s⁻¹ and 4.3e-05 s⁻¹ | 1.2e+07 M⁻¹ s⁻¹ and 1.3e+07 M⁻¹ s⁻¹ | B1 |
| < 0.01 nM | 17.7 h and 14.9 h | 1.09e-05 s⁻¹ and 1.29e-05 s⁻¹ | 5.54e+06 M⁻¹ s⁻¹ and 5.5e+06 M⁻¹ s⁻¹ | B2 |
| < 0.01 nM |  |  | 3.36e+06 M⁻¹ s⁻¹ and 5.58e+06 M⁻¹ s⁻¹ and 5.22e+06 M⁻¹ s⁻¹ | B3 |
| < 0.01 nM | 10.7 h and 13 h | 1.79e-05 s⁻¹ and 1.48e-05 s⁻¹ | 1.88e+06 M⁻¹ s⁻¹ and 1.9e+06 M⁻¹ s⁻¹ | B4 |
| 0.0275 nM and 0.0103 nM | 2.89 h and 2.56 h | 6.66e-05 s⁻¹ and 7.51e-05 s⁻¹ |  | B5 |
| 0.0113 nM and 0.0201 nM | 13.1 h and 10.8 h | 1.47e-05 s⁻¹ and 1.78e-05 s⁻¹ | 1.31e+06 M⁻¹ s⁻¹ and 885000 M⁻¹ s⁻¹ | B6 |
| 0.0132 nM and 0.0179 nM | 10.9 h and 13.3 h | 1.77e-05 s⁻¹ and 1.45e-05 s⁻¹ | 1.34e+06 M⁻¹ s⁻¹ and 813000 M⁻¹ s⁻¹ | B7 |
| 0.0594 nM and 0.0573 nM | 1.94 h and 1.86 h | 9.93e-05 s⁻¹ and 0.000104 s⁻¹ | 1.67e+06 M⁻¹ s⁻¹ and 1.81e+06 M⁻¹ s⁻¹ | B8 |
| 0.142 nM and 0.165 nM | 0.661 h and 0.547 h | 0.000291 s⁻¹ and 0.000352 s⁻¹ | 2.05e+06 M⁻¹ s⁻¹ and 2.14e+06 M⁻¹ s⁻¹ | B9 |
| 0.0267 nM and 0.043 nM | 2.35 h and 2.22 h | 8.18e-05 s⁻¹ and 8.66e-05 s⁻¹ | 1.9e+06 M⁻¹ s⁻¹ and 3.24e+06 M⁻¹ s⁻¹ | B10 |
| 0.0274 nM and 0.0268 nM | 2.67 h and 2.1 h | 7.22e-05 s⁻¹ and 9.19e-05 s⁻¹ | 2.64e+06 M⁻¹ s⁻¹ and 3.43e+06 M⁻¹ s⁻¹ | B11 |
| 0.0974 nM and 0.165 nM | 2.03 h and 1.7 h | 9.46e-05 s⁻¹ and 0.000113 s⁻¹ | 972000 M⁻¹ s⁻¹ and 686000 M⁻¹ s⁻¹ | B12 |
| 0.0322 nM and 0.0419 nM | 2.7 h and 2.35 h | 7.14e-05 s⁻¹ and 8.2e-05 s⁻¹ | 2.22e+06 M⁻¹ s⁻¹ and 1.96e+06 M⁻¹ s⁻¹ | B13 |

Target: T1, Mouse Fc-human GDF15 (Mu IgG1Fc_Fxa_Hu …)
Test: SPR BIAcore T200, 37C; Fc-GDF15 captured, IgG as analyte; average of runs
Method: as §1, §2

| Kd | koff | kon | Binder |
| --- | --- | --- | --- |
| < 0.01 nM | 4.76e-05 s⁻¹ | 1.25e+07 M⁻¹ s⁻¹ | B1 |
| < 0.01 nM | 1.19e-05 s⁻¹ | 5.52e+06 M⁻¹ s⁻¹ | B2 |
| < 0.01 nM | 6.97e-06 s⁻¹ | 4.72e+06 M⁻¹ s⁻¹ | B3 |
| < 0.01 nM | 1.64e-05 s⁻¹ | 1.89e+06 M⁻¹ s⁻¹ | B4 |
| 0.018 nM | 7.08e-05 s⁻¹ | 4.86e+06 M⁻¹ s⁻¹ | B5 |
| 0.0157 nM | 1.63e-05 s⁻¹ | 1.1e+06 M⁻¹ s⁻¹ | B6 |
| 0.0156 nM | 1.61e-05 s⁻¹ | 1.08e+06 M⁻¹ s⁻¹ | B7 |
| 0.0584 nM | 0.000101 s⁻¹ | 1.74e+06 M⁻¹ s⁻¹ | B8 |
| 0.153 nM | 0.000322 s⁻¹ | 2.09e+06 M⁻¹ s⁻¹ | B9 |
| 0.0349 nM | 8.42e-05 s⁻¹ | 2.57e+06 M⁻¹ s⁻¹ | B10 |
| 0.0271 nM | 8.2e-05 s⁻¹ | 3.03e+06 M⁻¹ s⁻¹ | B11 |
| 0.131 nM | 0.000104 s⁻¹ | 829000 M⁻¹ s⁻¹ | B12 |
| 0.037 nM | 7.67e-05 s⁻¹ | 2.09e+06 M⁻¹ s⁻¹ | B13 |

Target: T1, Mouse Fc-human GDF15 (Mu IgG1Fc_Fxa_Hu …)
Test: SPR BIAcore T200; summary sentence for the clones of Table 6
Method: as §1, §2

| Kd | Binder |
| --- | --- |
| < 0.15 nM | B1 |
| < 0.15 nM | B2 |
| < 0.15 nM | B3 |
| < 0.15 nM | B7 |
| < 0.15 nM | B9 |
| < 0.15 nM | B12 |
